Measured values published in patent US20220259316A1 (SINOCELLTECH, published 2022).

Biological target: T1, EGFR ECD recombinant protein (UniProt P00533 25-645, limits assumed)
T1 construct: extracellular domain; also called erbB1; Her1
Experiment: method not stated; recombinant EGFR ECD protein

B1: recombinant fully human anti-EGFR monoclonal antibody N6-3 (antibody, human IgG1, kappa, V domains shown)
VH: QVQLQESGPGLVKPSETLSLTCTVSGGSVSSGDYYWSWIRQSPGKGLEWIGHIYYSGNTNYNPSLKSRLTISIDTSKNQFSLKLSSVTAADTAIYYCVRDRVTGAFDIWGQGTMVTVSS
VL: DIVMTQSPSTLSASVGDRVTITCQASQDISNYLNWYQQKPGKAPKLLIYDASSLETGVPSRFSGSGSGTDFTFTISGLQPEDIATYFCQHFDHLPLAFGGGTKVEIKR
notes: also called recombinant human anti-EGFR monoclonal antibody (N6-3)
With B1 the Kd was 0.05 nM.
